Measurements reported in patent US20210054088A1.

How the values were obtained:
FcγRIIb = FcγRIIb (UniProt P31994); assay: MSD assay, Fcγ receptor coated
FcγRIIIa(V) = FcγRIIIa(V) (UniProt P08637); assay: MSD assay, Fcγ receptor coated
FcγRIIa(H) = FcγRIIa(H) (UniProt P12318); assay: MSD assay, Fcγ receptor coated
FcγRIIIa(F) = FcγRIIIa(F) (UniProt P08637); assay: MSD assay, Fcγ receptor coated
FcγRI = FcγRI (UniProt P12314); assay: MSD assay, Fcγ receptor coated
Human C1q (human) = Human C1q (human) (UniProt P02745); assay: ELISA, antibody coated, human C1q added
Human C1q (human), sequence (P02745 23-245 limits assumed, chain 1 of 3): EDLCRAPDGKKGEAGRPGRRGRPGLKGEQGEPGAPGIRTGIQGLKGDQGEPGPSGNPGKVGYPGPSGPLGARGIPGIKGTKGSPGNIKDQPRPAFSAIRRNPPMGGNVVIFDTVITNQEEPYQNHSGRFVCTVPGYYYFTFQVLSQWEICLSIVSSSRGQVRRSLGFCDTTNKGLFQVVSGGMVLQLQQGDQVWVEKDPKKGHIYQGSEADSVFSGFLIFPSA
Human C1q (human), sequence (P02746 28-253 limits assumed, chain 2 of 3, further chain): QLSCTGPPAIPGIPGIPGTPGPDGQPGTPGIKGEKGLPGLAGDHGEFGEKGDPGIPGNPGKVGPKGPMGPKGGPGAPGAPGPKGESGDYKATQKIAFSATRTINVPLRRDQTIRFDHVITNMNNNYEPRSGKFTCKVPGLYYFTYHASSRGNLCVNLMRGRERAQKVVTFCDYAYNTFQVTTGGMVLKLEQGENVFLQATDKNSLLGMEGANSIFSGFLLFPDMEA
Human C1q (human), sequence (P02747 29-245 limits assumed, chain 3 of 3, further chain): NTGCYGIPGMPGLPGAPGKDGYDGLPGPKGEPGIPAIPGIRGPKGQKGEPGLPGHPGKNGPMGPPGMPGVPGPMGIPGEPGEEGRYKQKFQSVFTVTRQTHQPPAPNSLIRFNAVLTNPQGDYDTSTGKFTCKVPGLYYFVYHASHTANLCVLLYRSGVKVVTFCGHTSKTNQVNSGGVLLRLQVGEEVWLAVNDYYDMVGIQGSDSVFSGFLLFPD

FcγRI, sequence (P12314 16-288 limits assumed): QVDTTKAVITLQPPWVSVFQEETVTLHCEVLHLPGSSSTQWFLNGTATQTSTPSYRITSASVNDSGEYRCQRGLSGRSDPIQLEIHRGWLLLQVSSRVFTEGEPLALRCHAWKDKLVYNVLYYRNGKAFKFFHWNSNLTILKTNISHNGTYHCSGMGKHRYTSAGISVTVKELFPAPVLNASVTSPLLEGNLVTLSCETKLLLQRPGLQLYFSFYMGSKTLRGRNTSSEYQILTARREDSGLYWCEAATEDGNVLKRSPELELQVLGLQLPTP
FcγRIIIa(F), sequence (P08637 17-208 limits assumed): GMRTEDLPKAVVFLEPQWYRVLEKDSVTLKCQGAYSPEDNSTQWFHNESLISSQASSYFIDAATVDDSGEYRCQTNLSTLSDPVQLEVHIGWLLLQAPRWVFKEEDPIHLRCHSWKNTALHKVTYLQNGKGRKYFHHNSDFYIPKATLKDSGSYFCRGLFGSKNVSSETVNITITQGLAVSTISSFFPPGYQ
FcγRIIIa(V), sequence (P08637 17-208 F176V limits assumed): as the sequence (P08637 17-208 limits assumed) above, with F160V counted along it
FcγRIIb, sequence (P31994 43-217 limits assumed): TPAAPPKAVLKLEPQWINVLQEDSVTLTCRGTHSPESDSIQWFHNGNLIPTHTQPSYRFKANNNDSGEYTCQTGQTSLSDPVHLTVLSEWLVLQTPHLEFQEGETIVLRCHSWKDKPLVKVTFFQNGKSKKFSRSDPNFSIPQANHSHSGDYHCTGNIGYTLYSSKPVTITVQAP
FcγRIIa(H), sequence (P12318 36-218 limits assumed): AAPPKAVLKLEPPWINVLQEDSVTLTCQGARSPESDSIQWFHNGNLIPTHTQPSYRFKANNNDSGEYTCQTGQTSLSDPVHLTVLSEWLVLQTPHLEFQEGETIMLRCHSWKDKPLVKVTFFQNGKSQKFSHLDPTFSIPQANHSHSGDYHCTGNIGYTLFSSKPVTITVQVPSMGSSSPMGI

Positive Control IgG1 (Intact Fc receptor effector functionality) (antibody)
EC50 (FcγRIIb): > 134 nM | EC50 (FcγRIIIa(V)): 6.2 nM | EC50 (FcγRIIa(H)): 93.7 nM | EC50 (FcγRIIIa(F)): 19 nM | EC50 (FcγRI): 0.8 nM | EC50 (Human C1q (human)): 8.9 nM
